Molecular target: T1, polypeptide 2C01 (human rhinovirus (W10 (HRV-C15)))
T1 construct: synthetic peptide coated on the ELISA plate; also called 2C (aa 151-163)
T1 peptide: YSLPPDPKYFDGY
Test: indirect ELISA, peptide coated 1 ug/well, 9A5 at 2 ug/mL

B1: monoclonal antibody 9A5 (antibody, V domains shown)
VH: EVQLVESGGDLVKPGGSLKLSCAASGFTFSIYGMSWVRQTPDKRLEWVATISSAGIYTYYPDSVKGRFTISRDNAKNTLYLQMSSLKSEDTAMYYCARHGYGLFDVWGAGTTVTVSS
VL: not shown
notes: also called anti-C149-2C01 mouse monoclonal antibody
  binding result: binds
